Experimental findings from the PETadex activity labels (doi:10.1038/s41467-025-61599-z) are described below.

Substrate in data set [1]: PET
Kind of data set: Proxy for plastic degradation [Released monomer concentration (HPLC/LC-MS) (MHET+TPA)]. The settings on record: pH 9, part of the chain shown.

Substrate in data set [2]: pNPB
Kind of data set: Proxy for plastic degradation [Absorbance @ 430nm] (min⁻¹). The settings on record: pH 8; part of the chain shown.

Substrate in data set [3]: PET
Put plainly: Proxy for plastic degradation [Released monomer concentration (HPLC/LC-MS) (TPA+MHET)]. The settings on record: part of the chain shown.

Experiment in data set [4]: as above
The note with it: part of the chain shown.

Substrate in data set [5]: PET
Kind of data set: Proxy for plastic degradation [kcat/Km (catalytic efficiency)] (mM⁻¹s⁻¹). The note with it: pH 8; part of the chain shown.

As for “AGFEKGPDPTTASVTADRGSYDIAQVDVPKGSGTGFADGTIYY”, the “Proxy for plastic degradation” value in data set [1] (30 °C) worked out at 14.6 µM; in data set [1] (40 °C), 14.2 µM; in data set [1] (50 °C), 14.1 µM; in data set [1] (55 °C), 14.4 µM; in data set [1] (60 °C), 15 µM; in data set [2], 16200.

On to “CFGGGDPDPSPEGQALGVPGDFEICSYEANLENDGYASARMTYPCDLS”, for which the “Proxy for plastic degradation” value in data set [1] (30 °C) worked out at 9.91 µM; in data set [1] (40 °C) it was 9.79 µM; in data set [1] (50 °C) it was 11 µM; in data set [1] (55 °C), 10.1 µM; in data set [1] (60 °C), 10.5 µM; in data set [2] it was 24400.

Turning to “DEIGQAPTAANITGDGSFSTSSSAIFGQSGFGGGTAYYPNTAGKYPVVAF”, the “Proxy for plastic degradation” value in data set [1] (30 °C) was determined as 65.5 µM; in data set [1] (40 °C), 759 µM; in data set [1] (50 °C), 3600 µM; in data set [1] (55 °C) it was 596 µM; in data set [1] (60 °C), 167 µM; in data set [3] (30 °C), 65.5 µM. The “Proxy for plastic degradation” value worked out at 759 µM in data set [3] (40 °C); 167 µM in data set [3] (55 °C); 104 µM in data set [3] (60 °C); 742 µM in data set [3] (pH 9, 50 °C, 24 h); 1640 µM in data set [3] (pH 9, 50 °C, 48 h); 3600 µM in data set [3] (pH 9, 50 °C, 72 h). In addition, the “Proxy for plastic degradation” value stood at 65 µM in data set [4] (30 °C); 759 µM in data set [4] (40 °C); 167 µM in data set [4] (60 °C); 0.263 in data set [5]; 34300 in data set [2].

With “DPWDAPGPYATAVQIGAVNTLYYPRDIASSPRRHPVIVWGNGT”, the “Proxy for plastic degradation” value in data set [1] (30 °C) was determined as 13 µM; in data set [1] (40 °C), 13.4 µM; in data set [1] (50 °C), 14.2 µM; in data set [1] (55 °C), 13.4 µM; in data set [1] (60 °C), 14.1 µM; in data set [2], 21900.

As for “ESETTAAAVSSRYYEETGPHAVTVEQGGPDHTLYYPSDLGAGGT”, the “Proxy for plastic degradation” value amounted to 13.9 µM in data set [1] (30 °C); 14.7 µM in data set [1] (40 °C); 10.6 µM in data set [1] (50 °C); 15.5 µM in data set [1] (55 °C); 15.3 µM in data set [1] (60 °C); 32300 in data set [2].

Take “FGNNGGGGGGEDNVFAEPGDFDVVTEPGGRDCTIFRPEQLGDDH”: the “Proxy for plastic degradation” value is 14 µM in data set [1] (30 °C); 13.8 µM in data set [1] (40 °C); 15.8 µM in data set [1] (50 °C); 14.4 µM in data set [1] (55 °C); 14.9 µM in data set [1] (60 °C); 23500 in data set [2].

Take “GDPPAVRTVPAAAAAPVDWSKTGPHQVKVDKADAHTIYRPSDLG”: the “Proxy for plastic degradation” value is 12.7 µM in data set [1] (30 °C); 12.6 µM in data set [1] (40 °C); 15.7 µM in data set [1] (50 °C); 16 µM in data set [1] (55 °C); 16.4 µM in data set [1] (60 °C); 44800 in data set [2].

“LDSPYQRGPDPTEASVKAIAGPFAVDQVKATGHTGFGSGTIFYP”: the “Proxy for plastic degradation” value was determined as 11.2 µM in data set [1] (30 °C); 22.8 µM in data set [1] (40 °C); 44.2 µM in data set [1] (50 °C); 26.1 µM in data set [1] (55 °C); 19.7 µM in data set [1] (60 °C); 41400 in data set [2].

On to “NNPGGGGGTAPDTGTGFPGVSNFSASGSFATTSGSAGASCTVFRPST”, for which the “Proxy for plastic degradation” value in data set [1] (30 °C) worked out at 8.31 µM; in data set [1] (40 °C), 9.03 µM; in data set [1] (50 °C) it was 9.57 µM; in data set [1] (55 °C), 9.09 µM; in data set [1] (60 °C) it was 9.47 µM; in data set [2] it was 25400.

As for “QDNSDGRYRPEGRTFARGAANLFDDRLFEARTYVTGTDVA”, the “Proxy for plastic degradation” value in data set [1] (30 °C) turned out to be 15.4 µM; in data set [1] (40 °C), 15.5 µM; in data set [1] (50 °C), 15.5 µM; in data set [1] (55 °C), 16.6 µM; in data set [1] (60 °C) it was 16.1 µM; in data set [2] it was 49500.

As to “QTNPYARGPNPTAASLEASAGPFTVRSFTVSRPSGYGAGTVYY”, the “Proxy for plastic degradation” value turned out to be 17.3 µM in data set [1] (30 °C); 64.7 µM in data set [1] (40 °C); 46.9 µM in data set [1] (50 °C); 27.4 µM in data set [1] (55 °C); 17.4 µM in data set [1] (60 °C); 24900 in data set [2].

“TPEFKPQPGPLSIKSAAAISFRVEDQAKDLQIRVTYPDGPGPWP”: the “Proxy for plastic degradation” value in data set [1] (30 °C) came out at 15.7 µM; in data set [1] (40 °C) it was 12.8 µM; in data set [1] (50 °C), 17.3 µM; in data set [1] (55 °C) it was 17.3 µM; in data set [1] (60 °C), 17.2 µM; in data set [2] it was 16800.

Take VTKGPDPSAAEVAKVTGSYAVTETKVDDAASTKFGPATV: the “Proxy for plastic degradation” value came out at 15 µM in data set [1] (30 °C); 12.8 µM in data set [1] (40 °C); 15.3 µM in data set [1] (50 °C); 16.2 µM in data set [1] (55 °C); 16.3 µM in data set [1] (60 °C); 31400 in data set [2].
